Test results: patent US6531296B1, “Nuclear tyrosine kinase Rak” (The University of North Carolina at Chapel Hill, priority 1995, dated 2003)
Like-named read-outs stand apart in the source and are kept apart here.

What was measured:
pRb = target: T1, pRb (Homo sapiens, UniProt P06400); assay: Affinity precipitation from SK-BR-3 lysate with GST-RakNT, Western blot for pRb; format: binding; conditions: SK-BR-3 cell lysate, GST alone as control
T1 construct: incubated with cell lysates from SK-BR-3 breast cancer cells; endogenous in cells; host or cells: SK-BR-3
T1 sequence (P06400 1-928): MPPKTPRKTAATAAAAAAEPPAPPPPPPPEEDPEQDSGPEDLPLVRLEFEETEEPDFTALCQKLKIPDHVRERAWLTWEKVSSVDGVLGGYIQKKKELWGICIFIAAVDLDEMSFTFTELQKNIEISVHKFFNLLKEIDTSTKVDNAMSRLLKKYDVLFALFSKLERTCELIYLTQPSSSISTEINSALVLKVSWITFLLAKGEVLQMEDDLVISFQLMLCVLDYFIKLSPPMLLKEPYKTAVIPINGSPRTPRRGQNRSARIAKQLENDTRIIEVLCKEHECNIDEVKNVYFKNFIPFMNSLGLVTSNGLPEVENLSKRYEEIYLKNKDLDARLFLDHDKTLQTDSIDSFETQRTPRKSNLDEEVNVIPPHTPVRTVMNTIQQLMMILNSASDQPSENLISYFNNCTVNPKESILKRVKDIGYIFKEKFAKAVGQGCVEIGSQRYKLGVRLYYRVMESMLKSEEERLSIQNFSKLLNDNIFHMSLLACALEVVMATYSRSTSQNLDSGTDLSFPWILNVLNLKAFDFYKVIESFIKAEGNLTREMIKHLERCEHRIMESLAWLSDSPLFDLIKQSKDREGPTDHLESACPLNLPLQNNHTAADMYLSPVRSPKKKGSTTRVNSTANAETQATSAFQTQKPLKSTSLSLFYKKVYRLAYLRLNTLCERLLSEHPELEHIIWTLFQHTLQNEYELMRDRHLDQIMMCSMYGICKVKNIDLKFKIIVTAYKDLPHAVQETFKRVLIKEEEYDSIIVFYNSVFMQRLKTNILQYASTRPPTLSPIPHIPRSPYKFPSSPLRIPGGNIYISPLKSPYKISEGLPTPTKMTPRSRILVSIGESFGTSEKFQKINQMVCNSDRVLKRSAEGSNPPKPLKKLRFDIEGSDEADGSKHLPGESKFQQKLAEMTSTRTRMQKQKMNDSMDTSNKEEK
Protocol: Affinity Precipitations. DNA fragments encoding the amino terminal region of Rak were prepared using the polymerase chain reaction with Pyrococcus furiosus DNA polymerase (Stratagene), and cloned into the pGEX-4T plasmid (Pharmacia). Rb fusion proteins encoding amino acids 379-928 (RbABC, containing the A/B pocket region and the COOH-terminal domain) and 780-928 (RbC for COOH terminal domain only), were prepared similarly. The GST fusion proteins were induced and purified according to the manufacturer's instructions, and were analyzed by SDS-PAGE to ensure that an equal amount of protein was used for the affinity precipitation procedure.
For affinity precipitations, 250 ug of cell lysate was pre-cleared once with 25 ul of glutathione-sepharose beads (Pharmacia) then once with 25 ul of the same beads containing 2 ug/ml Glutathione S-transferase. […]
Results and Discussion: To test whether Rak and pRb physically interact, the first 110 amino acids of Rak (first 110 amino acids of SEQ ID NO:2), where the predicted interacting peptides reside were prepared as a bacterial fusion protein with the Glutathione-S transferase gene (Rak-NT:GST), and incubated with cell lysates from SK-BR-3 breast cancer cells, and bound proteins were analyzed by Western blotting. […]

Cdk4 = target: T2, Cdk4 (Homo sapiens, UniProt P11802); assay: Affinity precipitation from BT474 lysate with Rak N-terminal GST fusion protein; format: binding; conditions: BT474 cell lysate
T2 construct: endogenous in cells; host or cells: BT474
Protocol: (§1) For affinity precipitations, 250 ug of cell lysate was pre-cleared once with 25 ul of glutathione-sepharose beads (Pharmacia) then once with 25 ul of the same beads containing 2 ug/ml Glutathione S-transferase. The lysate was then incubated with 25 ul of GST-RakNT bound to glutathione-sepharose, in a total volume of 500 ul of NP-40 lysis buffer, for 3 hours at 4° C. The beads were then washed three times in NP-40 Lysis Buffer and the bound proteins were eluted with SDS-PAGE sample loading buffer. pRb binding was assessed by Western blot analysis with the G3-245 antibody at 1 ug/ml.
(§2) Because the N-terminus is frequently responsible for protein-protein interactions in Src-related kinases, the proteins that bind to this region were characterized. The N-terminal 110 amino acids of Rak were expressed as a bacterial fusion protein with Glutathione S-transferase, and were incubated with cell lysates from BT474 breast cancer cells. In this assay, binding of RAK to the cyclin-dependent kinases Cdc2 and Cdk4 was detected, but binding to Cdk5, Cdk6, or Cdk7 was not detected (data not shown).

Cdk5 = target: T3, Cdk5 (Homo sapiens, UniProt Q00535); assay: as above; format: binding; conditions: BT474 cell lysate
T3 construct: endogenous in cells; host or cells: BT474
Protocol: as §1, §2

Cdk6 = target: T4, Cdk6 (Homo sapiens, UniProt Q00534); assay: as above; format: binding; conditions: BT474 cell lysate
T4 construct: endogenous in cells; host or cells: BT474
Protocol: as §1, §2

Cdk7 = target: T5, Cdk7 (Homo sapiens, UniProt P50613); assay: as above; format: binding; conditions: BT474 cell lysate
T5 construct: endogenous in cells; host or cells: BT474
Protocol: as §1, §2

GAP-associated p62 = target: T6, GAP-associated p62 (Homo sapiens, UniProt Q07666); assay: Affinity precipitation from SK-BR-3 lysate with GST-RakNT; format: binding; conditions: SK-BR-3 cell lysate
T6 construct: incubated with cell lysates from SK-BR-3 breast cancer cells; endogenous in cells; host or cells: SK-BR-3
Protocol: as §1
(§3) Results and Discussion: To test whether Rak and pRb physically interact, the first 110 amino acids of Rak (first 110 amino acids of SEQ ID NO:2), where the predicted interacting peptides reside were prepared as a bacterial fusion protein with the Glutathione-S transferase gene (Rak-NT:GST), and incubated with cell lysates from SK-BR-3 breast cancer cells, and bound proteins were analyzed by Western blotting. Glutathione-S transferase alone was used as the control. […] In contrast, binding of Rak to proteins that interact with the SH3 domains of other members of the Src family, such as GAP-associated p62 or Shc, was not found (data not shown).

Shc = assay: as above; format: binding, human; conditions: SK-BR-3 cell lysate
Protocol: as §1, §3

CDC2 [1] = target: T7, CDC2 (Homo sapiens, UniProt P06493); assay: Affinity precipitation from BT474 lysate with Rak N-terminal GST fusion protein; format: binding; design: endogenous in cells; host or cells: BT474; conditions: BT474 cell lysate
Protocol: as §1, §2

CDC2 [2] = target: T7, CDC2; assay: In vitro kinase assay of immunoprecipitated CDC2 with Histone H1 as exogenous substrate; format: biochemical; design: incubated with immunoprecipitated CDC2; endogenous in cells
Protocol: The 110 N-terminal amino acids of Rak were produced as a GST fusion protein (RAKNT:GST) and incubated with immunoprecipitated CDC2, and subjected to an in vitro kinase assay with Histone H1 added as an exogenous substrate, and analyzed by SDS-PAGE. […] This fusion protein was incubated with immunoprecipitated CDC2, and subjected to an in vitro kinase assay with Histone H1 added as an exogenous substrate, and analyzed by SDS-PAGE.
The CDC2 binding domain of RAK appears to be between amino acids 86-110. Since the binding of RAK to CDC2 is exceptionally strong, the biological function of this interaction was explored.

T7 sequence (P06493 whole entry, the tested form may be a part): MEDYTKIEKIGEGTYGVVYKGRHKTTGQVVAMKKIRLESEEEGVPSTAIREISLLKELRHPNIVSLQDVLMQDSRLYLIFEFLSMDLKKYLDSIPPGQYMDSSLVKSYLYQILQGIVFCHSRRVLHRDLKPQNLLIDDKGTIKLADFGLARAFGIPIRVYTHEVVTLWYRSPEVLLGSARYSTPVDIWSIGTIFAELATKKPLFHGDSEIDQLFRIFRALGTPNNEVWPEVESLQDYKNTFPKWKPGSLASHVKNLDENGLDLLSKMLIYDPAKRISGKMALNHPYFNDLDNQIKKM
T2 sequence (P11802 whole entry, the tested form may be a part): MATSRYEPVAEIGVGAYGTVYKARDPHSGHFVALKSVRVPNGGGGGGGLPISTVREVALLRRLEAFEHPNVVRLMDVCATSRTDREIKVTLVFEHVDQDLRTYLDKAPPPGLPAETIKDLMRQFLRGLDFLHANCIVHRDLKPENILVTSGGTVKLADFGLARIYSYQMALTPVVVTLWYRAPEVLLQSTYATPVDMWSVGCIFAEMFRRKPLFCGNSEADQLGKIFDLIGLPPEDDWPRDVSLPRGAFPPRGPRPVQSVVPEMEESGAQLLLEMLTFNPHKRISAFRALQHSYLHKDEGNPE
Sequence of Shc (P29353 156-583 limits assumed): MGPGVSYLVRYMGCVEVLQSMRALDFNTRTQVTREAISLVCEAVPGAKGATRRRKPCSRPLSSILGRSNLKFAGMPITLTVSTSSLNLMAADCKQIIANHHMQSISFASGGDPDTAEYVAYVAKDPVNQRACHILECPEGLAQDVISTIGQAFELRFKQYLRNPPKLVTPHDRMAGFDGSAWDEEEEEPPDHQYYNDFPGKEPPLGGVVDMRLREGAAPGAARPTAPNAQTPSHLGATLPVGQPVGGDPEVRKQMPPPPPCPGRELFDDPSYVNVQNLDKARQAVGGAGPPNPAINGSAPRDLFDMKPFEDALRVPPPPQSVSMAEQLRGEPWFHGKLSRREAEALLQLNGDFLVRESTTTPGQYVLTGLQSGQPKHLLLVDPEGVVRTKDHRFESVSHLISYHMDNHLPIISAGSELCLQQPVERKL
T3 sequence (Q00535 whole entry): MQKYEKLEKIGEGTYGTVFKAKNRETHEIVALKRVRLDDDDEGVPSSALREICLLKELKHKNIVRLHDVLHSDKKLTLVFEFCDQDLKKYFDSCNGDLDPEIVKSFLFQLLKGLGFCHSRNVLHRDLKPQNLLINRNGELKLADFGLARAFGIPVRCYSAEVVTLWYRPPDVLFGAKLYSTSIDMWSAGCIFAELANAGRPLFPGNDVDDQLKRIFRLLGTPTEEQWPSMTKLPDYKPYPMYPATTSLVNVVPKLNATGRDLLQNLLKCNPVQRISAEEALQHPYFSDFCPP
T5 sequence (P50613 whole entry): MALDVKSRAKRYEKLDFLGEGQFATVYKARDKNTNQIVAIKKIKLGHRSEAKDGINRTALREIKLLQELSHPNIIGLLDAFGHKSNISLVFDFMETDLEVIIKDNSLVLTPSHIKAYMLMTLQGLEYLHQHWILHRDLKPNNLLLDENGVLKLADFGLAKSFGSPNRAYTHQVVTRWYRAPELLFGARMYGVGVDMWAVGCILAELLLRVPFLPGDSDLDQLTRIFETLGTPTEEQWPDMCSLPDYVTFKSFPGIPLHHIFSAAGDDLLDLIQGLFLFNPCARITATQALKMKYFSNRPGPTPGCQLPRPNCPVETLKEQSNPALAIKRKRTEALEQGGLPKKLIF
T6 sequence (Q07666 whole entry): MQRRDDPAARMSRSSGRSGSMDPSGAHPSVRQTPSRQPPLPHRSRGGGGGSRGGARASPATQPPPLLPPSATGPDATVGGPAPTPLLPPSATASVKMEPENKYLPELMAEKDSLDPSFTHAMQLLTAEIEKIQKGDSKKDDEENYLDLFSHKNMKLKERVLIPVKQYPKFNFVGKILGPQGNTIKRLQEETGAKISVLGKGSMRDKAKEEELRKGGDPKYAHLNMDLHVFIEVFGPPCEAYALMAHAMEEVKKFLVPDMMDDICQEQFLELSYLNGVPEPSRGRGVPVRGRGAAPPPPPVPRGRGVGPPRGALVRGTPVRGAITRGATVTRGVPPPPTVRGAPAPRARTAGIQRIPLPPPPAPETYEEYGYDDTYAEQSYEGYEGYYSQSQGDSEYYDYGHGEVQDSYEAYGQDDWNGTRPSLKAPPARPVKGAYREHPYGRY
T4 sequence (Q00534 whole entry): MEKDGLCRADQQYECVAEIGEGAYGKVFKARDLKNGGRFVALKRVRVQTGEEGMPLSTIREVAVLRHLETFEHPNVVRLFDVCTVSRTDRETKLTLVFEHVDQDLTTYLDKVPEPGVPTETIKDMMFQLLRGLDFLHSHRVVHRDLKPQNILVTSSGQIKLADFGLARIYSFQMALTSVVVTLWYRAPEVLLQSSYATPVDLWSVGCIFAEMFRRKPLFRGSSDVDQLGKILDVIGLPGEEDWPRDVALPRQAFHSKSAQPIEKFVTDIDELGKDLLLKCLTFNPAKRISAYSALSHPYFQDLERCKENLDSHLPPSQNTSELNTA

B1: Rak-NT:GST: first 110 amino acids of Rak (SEQ ID NO:2) as bacterial fusion protein with Glutathione-S transferase (protein)
chain: MSNICQRLWEYLEPYLPCLSTEADKSTVIENPGALCSPQSQRHGHYFVALFDYQARTAEDLSFRAGDKLQVLDTLHEGWWFARHLEKRRDGSSQQLQGYIPSNYVAEDRS
modifications: left off: a dimerising Fc or GST; large carriers; small tags and cut ends
pRb binding (pRb): bound | binding to Cdk4 (Cdk4): detected | binding to Cdk5 (Cdk5): not detected | binding to Cdk6 (Cdk6): not detected | binding to Cdk7 (Cdk7): not detected | binding to GAP-associated p62 (GAP-associated p62): not found | binding to Shc (Shc): not found | binding to Cdc2 (CDC2 [1]): detected | inhibition of CDC2 histone H1 phosphorylation activity (CDC2 [2]; listed as RAK-SH3:GST): able to block CDC2 histone H1 activity | inhibition of CDC2 histone H1 phosphorylation activity (CDC2 [2]; listed as RakNT fusion protein): reduction of CDC2 histone H1 phosphorylation activity

B2: RAKΔ86:GST: RakNT GST fusion protein with amino acids 86-110 (CDC2 binding site) deleted (protein, UniProt P42685 1-85, looked up, fragment)
chain: MSNICQRLWEYLEPYLPCLSTEADKSTVIENPGALCSPQSQRHGHYFVALFDYQARTAEDLSFRAGDKLQVLDTLHEGWWFARHL
modifications: GST fusion
binding to Cdk4 (Cdk4): did not affect binding | inhibition of CDC2 histone H1 phosphorylation activity (CDC2 [2]): greatly diminished CDC2 inhibitory activity
